In PMC5532383:

Target: PPI peptide (…) in complex with pMHC-CD8wt monomer (HLA-A02:01)
Experiment: micropipette adhesion frequency assay; biotinylated pMHC monomers on streptavidin-coated biotinylated RBCs brought into contact with single CTL clones; adhesion frequency against contact time, equilibrium at 4 s; 2D affinity AcKa in μm^4; room temperature (main figures) and 37°C (supplement)

Substance: CD8 co-receptor on human HCV-specific CTL clones (from UniProt P01732 22-235; P10966 22-210)
- 2D affinity (AcKa): 1e-06 μm^4
